In assay [1] the target is T1, Human IL-17A重组蛋白 (IL-17A-His) (human, UniProt Q16552 24-155, biotinylated (NHS-biotin) in the ELISA of paragraph 263).
T1 construct: also called IL-17A抗原蛋白; IL-17抗原
T1 sequence: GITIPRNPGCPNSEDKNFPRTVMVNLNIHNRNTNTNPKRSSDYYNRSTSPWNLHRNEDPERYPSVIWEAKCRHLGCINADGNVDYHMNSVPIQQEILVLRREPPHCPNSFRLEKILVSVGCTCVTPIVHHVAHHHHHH
In words: BLI (ForteBio OCTET R2), IL-17A-His on the sensor, antibody 50-3.13 nM, 25℃. Background: In BLI a coated tip is dipped into the sample, and binding shifts an interference pattern.

Assay [2] concerns the target T1, Human IL-17A重组蛋白 (IL-17A-His). Description: ELISA, antibody coated at 2 ug/mL, Biotin-IL-17A-His titrated from 10 ug/mL, HRP-Streptavidin. On the technique in general: An ELISA detects its analyte on a solid surface through an enzyme-linked reagent.
The target is the same in assay [3]. In words: cell-based or functional assay.

B1: Ixekizumab (antibody, human IgG4 S228P, kappa, V domains shown)
VH: QVQLVQSGAEVKKPGSSVKVSCKASGYSFTDYHIHWVRQAPGQGLEWMGVINPMYGTTDYNQRFKGRVTITADESTSTAYMELSSLRSEDTAVYYCARYDYFTGTGVYWGQGTLVTVSS
VL: DIVMTQTPLSLSVTPGQPASISCRSSRSLVHSRGNTYLHWYLQKPGQSPQLLIYKVSNRFIGVPDRFSGSGSGTDFTLKISRVEAEDVGVYYCSQSTHLPFTFGQGTKLEIKR
notes: Made in house in 293F cells from synthesised variable regions cloned into hIgG4 and hIgKc vectors; Protein A purified; also called 阳性对照抗体Ixekizumab; 阳性抗体
As usually defined, the Kd is the constant that tells how readily two partners part at equilibrium. Read a high Kd as a looser complex. For orientation: EC50 means the concentration needed to bring the measured effect to its halfway point. B1: the affinity in assay [1], expressed as Kd, was 0.391 nM. The same molecule displayed a concentration for a half-maximal effect (EC50) in assay [2] of 10.1 µg/mL. Besides, the “IC50 of blocking Human IL-17A activation of 293F-IL-17RA-IL-17Rc-ACT1-NFκB-Luc (luciferase activity)” value in assay [3] is 1.36 µg/mL.
